B1: Protein kinase C epsilon type (Homo sapiens), Q02156 (parent)
chain: MVVFNGLLKIKICEAVSLKPTAWSLRHAVGPRPQTFLLDPYIALNVDDSRIGQTATKQKTNSPAWHDEFVTDVCNGRKIELAVFHDAPIGYDDFVANCTIQFEELLQNGSRHFEDWIDLEPEGRVYVIIDLSGSSGEAPKDNEERVFRERMRPRKRQGAVRRRVHQVNGHKFMATYLRQPTYCSHCRDFIWGVIGKQGYQCQVCTCVVHKRCHELIITKCAGLKKQETPDQVGSQRFSVNMPHKFGIHNYKVPTFCDHCGSLLWGLLRQGLQCKVCKMNVHRRCETNVAPNCGVDARGIAKVLADLGVTPDKITNSGQRRKKLIAGAESPQPASGSSPSEEDRSKSAPTSPCDQEIKELENNIRKALSFDNRGEEHRAASSPDGQLMSPGENGEVRQGQAKRLGLDEFNFIKVLGKGSFGKVMLAELKGKDEVYAVKVLKKDVILQDDDVDCTMTEKRILALARKHPYLTQLYCCFQTKDRLFFVMEYVNGGDLMFQIQRSRKFDEPRSRFYAAEVTSALMFLHQHGVIYRDLKLDNILLDAEGHCKLADFGMCKEGILNGVTTTTFCGTPDYIAPEILQELEYGPSVDWWALGVLMYEMMAGQPPFEADNEDDLFESILHDDVLYPVWLSKEAVSILKAFMTKNPHKRLGCVASQNGEDAIKQHPFFKEIDWVLLEQKKIKPPFKPRIKTKRDVNNFDQDFTREEPVLTLVDEAIVKQINQEEFKGFSYFGEDLMP
B2: Protein kinase C epsilon type (Homo sapiens), Q02156 (parent)
chain: B1 chain
partner: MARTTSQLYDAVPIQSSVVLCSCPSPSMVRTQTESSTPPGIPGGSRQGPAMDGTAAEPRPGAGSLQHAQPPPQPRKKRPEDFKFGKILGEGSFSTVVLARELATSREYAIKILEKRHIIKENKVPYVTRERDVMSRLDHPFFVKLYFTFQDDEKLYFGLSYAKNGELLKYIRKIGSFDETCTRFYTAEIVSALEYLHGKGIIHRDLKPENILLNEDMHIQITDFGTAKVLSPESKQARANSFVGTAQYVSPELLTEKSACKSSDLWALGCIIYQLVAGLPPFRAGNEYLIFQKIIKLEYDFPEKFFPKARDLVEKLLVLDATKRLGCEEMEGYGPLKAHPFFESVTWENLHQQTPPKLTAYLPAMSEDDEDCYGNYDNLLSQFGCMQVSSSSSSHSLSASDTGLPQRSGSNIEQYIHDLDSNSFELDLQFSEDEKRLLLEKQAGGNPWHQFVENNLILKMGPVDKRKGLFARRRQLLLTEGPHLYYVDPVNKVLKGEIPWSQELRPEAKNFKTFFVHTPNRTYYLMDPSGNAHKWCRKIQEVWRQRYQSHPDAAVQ

Variants of: B1
Details: with sin1_human MAPKAP1, Q9BPZ7
sin1_human MAPKAP1, Q9BPZ7, sequence (Q9BPZ7 whole entry): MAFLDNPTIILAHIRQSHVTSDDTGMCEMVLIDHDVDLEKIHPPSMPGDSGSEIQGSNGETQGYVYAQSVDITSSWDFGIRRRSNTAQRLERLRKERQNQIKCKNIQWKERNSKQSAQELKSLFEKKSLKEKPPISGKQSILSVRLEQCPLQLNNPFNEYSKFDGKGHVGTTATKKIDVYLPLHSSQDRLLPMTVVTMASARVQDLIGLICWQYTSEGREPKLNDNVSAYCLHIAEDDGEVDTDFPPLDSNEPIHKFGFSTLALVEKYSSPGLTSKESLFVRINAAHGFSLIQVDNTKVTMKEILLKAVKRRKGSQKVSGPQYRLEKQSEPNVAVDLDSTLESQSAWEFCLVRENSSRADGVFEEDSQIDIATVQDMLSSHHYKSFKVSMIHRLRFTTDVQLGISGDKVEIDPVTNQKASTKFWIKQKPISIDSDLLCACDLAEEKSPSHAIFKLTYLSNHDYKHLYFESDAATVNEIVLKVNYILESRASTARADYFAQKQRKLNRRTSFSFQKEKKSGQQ
In the case of E599K, the “effect of a mutation on the interaction” value is reported as “increasing interaction strength”.

Variants of: B2
Details: with pdpk1_human PDPK1, O15530
With E599K the “effect of a mutation on the interaction” value was “with no effect”.
